First the molecules themselves.
B1: flagellin mutant (N153W) of V. vulnificus flagellin FlaB (ligand)
chain: MAVNVNTNVAAMTAQRYLNNANSAQQTSMERLSSGFKINSAKDDAAGLQISNRLNVQSRGLDVAVRNANDGISIAQTAEGAMNETTNILQRMRDLSLQSANGSNSKSERVAIQEEVTALNDELNRIAETTSFGGNKLLNGTYGTKAMQIGADWGEAVMLSLKDMRSDNVMMGGVSYQAEEGKDKNWNVAAGDNDLTIALTDSFGNEQEIEINAKAGDDIEELATYINGQTDLVKASVGEGGKLQIFAGNNKVQGEIAFSGSLAGELGLGEGKNVTVDTIDVTTVQGAQESVAIVDAALKYVDSHRAELGAFQNRFNHAISNLDNINENVNASKSRIKDTDFAKETTQLTKTQILSQASSSILAQAKQAPNSALSLLG
notes: Recombinant, from pTYB12 intein fusion in E. coli ER2566
B2: flagellin mutant (D70A/N135D) of V. vulnificus flagellin FlaB (ligand)
chain: B1 chain with D70A, N135D, W153N
notes: Recombinant, from pTYB12 intein fusion in E. coli ER2566; also called dual site-directed mutant flagellin
B3: flagellin mutant (E108A) of V. vulnificus flagellin FlaB (ligand)
chain: B1 chain with E108A, W153N
notes: as for B1
B4: flagellin mutant (A151W) of V. vulnificus flagellin FlaB (ligand)
chain: B1 chain with A151W, W153N
notes: as for B1
B5: flagellin mutant (R93A) of V. vulnificus flagellin FlaB (ligand)
chain: B1 chain with R93A, W153N
notes: as for B1
B6: flagellin mutant (N135D) of V. vulnificus flagellin FlaB (ligand)
chain: B1 chain with N135D, W153N
notes: as for B1
B7: flagellin mutant (N101A) of V. vulnificus flagellin FlaB (ligand)
chain: B1 chain with N101A, W153N
notes: as for B1
B8: flagellin mutant (L97W) of V. vulnificus flagellin FlaB (ligand)
chain: B1 chain with L97W, W153N
notes: as for B1
B9: flagellin mutant (V291W) of V. vulnificus flagellin FlaB (ligand)
chain: B1 chain with W153N, V291W
notes: as for B1
B10: flagellin mutant (S103W) of V. vulnificus flagellin FlaB (ligand)
chain: B1 chain with S103W, W153N
notes: as for B1
B11: flagellin mutant (D70A) of V. vulnificus flagellin FlaB (ligand)
chain: B1 chain with D70A, W153N
notes: Recombinant, expressed in E. coli ER2566 from pTYB12 as intein fusion, released with DTT

Numbering of substitutions follows the chain as printed. In names and notes the source's numbering stands.

Chain of toll-like receptor-5 (hTLR5) expressed in 293T cells from p3xFlag-hTLR5 plasmid (O60602 21-858): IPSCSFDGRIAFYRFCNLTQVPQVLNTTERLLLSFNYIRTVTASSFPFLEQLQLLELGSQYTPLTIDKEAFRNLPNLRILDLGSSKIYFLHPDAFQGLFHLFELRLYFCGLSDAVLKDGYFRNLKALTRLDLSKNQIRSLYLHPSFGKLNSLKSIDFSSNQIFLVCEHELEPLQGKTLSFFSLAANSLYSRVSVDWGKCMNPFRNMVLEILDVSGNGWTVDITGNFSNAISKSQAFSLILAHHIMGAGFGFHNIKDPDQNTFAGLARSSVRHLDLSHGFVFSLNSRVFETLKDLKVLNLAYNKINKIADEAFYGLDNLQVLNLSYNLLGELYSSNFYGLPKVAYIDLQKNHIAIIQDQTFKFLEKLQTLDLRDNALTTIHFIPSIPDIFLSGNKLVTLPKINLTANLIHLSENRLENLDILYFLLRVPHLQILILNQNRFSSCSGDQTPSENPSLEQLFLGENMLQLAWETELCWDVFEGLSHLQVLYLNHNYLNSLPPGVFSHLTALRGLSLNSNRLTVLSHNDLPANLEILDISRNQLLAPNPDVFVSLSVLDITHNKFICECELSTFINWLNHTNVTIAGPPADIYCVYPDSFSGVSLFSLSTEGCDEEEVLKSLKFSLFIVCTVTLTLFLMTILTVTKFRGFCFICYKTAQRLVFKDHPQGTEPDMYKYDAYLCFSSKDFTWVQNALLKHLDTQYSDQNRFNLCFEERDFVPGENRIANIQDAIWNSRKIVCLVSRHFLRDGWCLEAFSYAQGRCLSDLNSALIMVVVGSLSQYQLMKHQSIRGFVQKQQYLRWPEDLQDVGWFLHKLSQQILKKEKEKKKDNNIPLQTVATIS

One data set addresses toll-like receptor-5 (hTLR5) expressed in 293T cells from p3xFlag-hTLR5 plasmid (human (printed only as hTLR5), UniProt O60602 21-858). As to the kind of experiment: cell-based or functional assay.
Regarding B1, the “increase in TLR5-mediated NF-κB transcription activity (luciferase reporter, 293T cells, 20 ng/ml) compared to PBS control” value (from here on “increase”) is roughly 24.5 fold.

Take B2: the “increase” value is roughly 14.9 fold.

In the case of B3, the “increase” value was roughly 21 fold.

Regarding B4, the “increase” value was roughly 22.5 fold.

For B5, the “increase” value is roughly 14 fold.

Turning to B6, the “increase” value is roughly 21.7 fold.

As for B7, the “increase” value is roughly 22.6 fold.

As for B8, the “increase” value is roughly 25 fold.

As for B9, the “increase” value was roughly 16.6 fold.

As for B10, the “increase” value was roughly 23.7 fold.

Turning to B11, the “increase” value is roughly 24.6 fold.

A further data set deals with the molecule itself. In words: native-gel electrophoresis, self-association in aqueous solution.
Regarding B1, the binding result is “binds”.

Take B2: the binding result is “binds”.

For the molecule B3, the binding result was “binds”.

Take B4: the binding result is recorded as “binds”.

Regarding B5, the binding result is “binds”.

On to B6, for which the binding result is given as “binds”.

As to B7, the binding result is on record as “binds”.

B8: the binding result is reported as “binds”.

Take B9: the binding result is “binds”.

Consider B10, for which the binding result was “binds”.

With B11, the binding result is reported as “binds”.
